The labels stand for the following.
B1: MBP-tagged PX domain of SNX5 (MBP-PX-SNX5) (domain or fragment, human, UniProt Q9Y5X3 25-172, looked up)
chain: LNVDPSLQIDIPDALSERDKVKFTVHTKTTLPTFQSPEFSVTRQHEDFVWLHDTLIETTDYAGLIIPPAPTKPDFDGPREKMQKLGEGEGSMTKEEFAKMKQELEAEYLAVFKKTVSSHEVFLQRLSSHPVLSKDRNFHVFLEYDQDL
notes: Phox homology (PX) domain of human sorting nexin 5; Cloned in pMAL-p4X; also called PX-SNX5-WT; source: E. coli BL21 (DE3), purified (amylose resin, SEC)
B2: GST-tagged NCOA7-AS N-terminal domain (NCOA7-AS-NTD-GST) (domain or fragment, human, UniProt Q8NI08-5 1-53, looked up)
chain: MRGQRLPLDIQIFYCARPDEEPFVKIITVEEAKRRKSTCSYYEDEDEEVLPVL
notes: numbers count on: NCOA7-AS; source: E. coli BL21 (DE3), purified (Ni-NTA, SEC); not shown: GST, C-terminal, kept
B3: FITC conjugated NCOA7-AS peptide (NCOA7-AS-NTD-FITC) (peptide)
peptide: RLPLDIQIFYCARPDEEPFVKIITVEEAKRR
modifications: also: FITC conjugated, position not given here
notes: numbers count on: NCOA7-AS; Printed as NH2-...-COOH; Limits worked out from Tyr14, Gln11, Glu21 and Val24 as numbered in the structure; also called fluorescently labeled NCOA7-AS-NTD

Holding throughout (settings): both partners purified
The target in one test is T1, GST-tagged NCOA7-AS-Y14F (human, UniProt Q8NI08-5 1-219, Y14F).
T1 construct: source: E. coli BL21 (DE3), purified (Ni-NTA, SEC); not shown: GST, C-terminal, kept
T1 sequence (looked up): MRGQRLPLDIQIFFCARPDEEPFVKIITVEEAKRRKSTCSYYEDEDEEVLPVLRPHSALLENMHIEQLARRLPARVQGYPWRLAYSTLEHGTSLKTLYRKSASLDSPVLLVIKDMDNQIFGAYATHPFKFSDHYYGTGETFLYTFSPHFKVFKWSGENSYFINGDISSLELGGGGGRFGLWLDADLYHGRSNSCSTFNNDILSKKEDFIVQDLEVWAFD
Briefly: pull-down; GST-tagged proteins (14-35 μg) on glutathione agarose beads, 85 μg MBP-tagged protein, 2 h at 4 °C; 50 mM Tris-HCl pH 8, 600 mM NaCl, 5 mM β-mercaptoethanol, 10% glycerol; Western blot (GST, MBP). For orientation: In western blotting, separated proteins are transferred to a membrane and probed.

The target of test [1] is T2, GST-tagged NCOA7-AS (NCOA7-AS-WT-GST) (human, UniProt Q8NI08-5 1-219).
T2 construct: numbers count on: NCOA7-AS; Modified pET-30: MCS, TEV cleavage site, GST, His6; no cleavage is described for the GST-tagged proteins; also called GST-tagged-NCOA7-AS-WT; source: E. coli BL21 (DE3), purified (Ni-NTA, SEC); not shown: GST, C-terminal, kept
T2 sequence (looked up): T1 sequence (looked up) with F14Y
The description is as above.

The target in test [2] is B1. The test is described as above.
The target of test [3] is B1. Briefly: microfluidic diffusional sizing; 57 nM FITC peptide tracked, MBP-PX-SNX5 proteins titrated 0.38-250 μM in PBS-10% glycerol; Fluidity One-W; hydrodynamic radius; one-site specific binding fit; apparent Kd.
Test [4] deals with T3, MBP-tagged PX domain of SNX5 with F136A (MBP-PX-SNX5-F136A) (human, UniProt Q9Y5X3 25-172, F136A).
T3 construct: Phox homology (PX) domain of human sorting nexin 5; pMAL-PX-SNX5-F136A by site-directed mutagenesis; also called F136A mutant; source: E. coli BL21 (DE3), purified (amylose resin, SEC)
T3 sequence (looked up): B1 chain with F112A
Described as above.

The record followed here is publication PMC13543948, “SNX-BAR proteins 5 and 6 are required for NCOA7-AS antiviral activity against influenza A virus” (The Journal of Biological Chemistry, 2026).

Changes are numbered by the printed parent chain. Where no end group is shown, it is not given here.

For the molecule B1, the binding result (with GST-tagged NCOA7-AS-Y14F; in test [1]) was “binds” each time. Regarding B2, in test [2], the binding result is given as “binds”. For the molecule B3, the results for the Kd in test [3] and in test [4] were 1400 nM and 13.4 µM, respectively.
